Assay results taken from US20060205032.

T1: recombinant human STAT1 (Biosource), P42224
T1 chain: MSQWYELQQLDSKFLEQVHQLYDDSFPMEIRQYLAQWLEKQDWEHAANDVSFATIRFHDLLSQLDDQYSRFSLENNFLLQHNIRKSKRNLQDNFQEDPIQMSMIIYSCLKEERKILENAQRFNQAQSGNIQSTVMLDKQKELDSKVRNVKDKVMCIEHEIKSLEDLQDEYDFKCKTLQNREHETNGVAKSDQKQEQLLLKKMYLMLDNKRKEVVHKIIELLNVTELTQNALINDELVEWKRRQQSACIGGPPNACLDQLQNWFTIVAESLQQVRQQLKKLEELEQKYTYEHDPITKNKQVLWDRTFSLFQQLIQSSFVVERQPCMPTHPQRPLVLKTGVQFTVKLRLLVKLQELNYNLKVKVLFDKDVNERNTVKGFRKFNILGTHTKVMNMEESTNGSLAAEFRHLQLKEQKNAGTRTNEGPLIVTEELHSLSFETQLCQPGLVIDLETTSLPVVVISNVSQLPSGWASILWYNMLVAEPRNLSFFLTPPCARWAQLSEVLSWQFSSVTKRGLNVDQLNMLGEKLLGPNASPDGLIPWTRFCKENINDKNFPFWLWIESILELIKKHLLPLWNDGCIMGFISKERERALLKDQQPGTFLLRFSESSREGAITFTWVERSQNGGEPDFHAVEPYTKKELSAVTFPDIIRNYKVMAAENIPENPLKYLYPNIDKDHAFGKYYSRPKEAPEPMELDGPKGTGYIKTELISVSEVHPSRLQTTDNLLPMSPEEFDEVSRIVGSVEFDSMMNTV

B1: GST-Δ52-hSLIM (protein)
chain: MALTVDVAGPAPWGFRITGGRDFHTPIMVTKVAERGKAKDADLRPGDIIVAINGESAEGMLHAEAQSKIRQSPSPLRLQLDRSQATSPGQTNGDSSLEVLATRFQGSVRTYTESQSSLRSSYSSPTSLSPRAGSPFSPPPSSSSLTGEAAISRSMDSEGGSLLLDEDSEVFKMLQENREGRAAPRQSSSFRLLQEALEAEERGGTPAFLPSSLSPQSSLPASRALATPPKLHTCEKCSTSIANQAVRIQEGRYRHPGCYTCADCGLNLKMRGHFWVGDELYCEKHARQRYSAPATLSSRA
B2: GST-SLIM (bacterially expressed wild-type GST-hSLIM) (protein)
chain: MALTVDVAGPAPWGFRITGGRDFHTPIMVTKVAERGKAKDADLRPGDIIVAINGESAEGMLHAEAQSKIRQSPSPLRLQLDRSQATSPGQTNGDSSLEVLATRFQGSVRTYTESQSSLRSSYSSPTSLSPRAGSPFSPPPSSSSLTGEAAISRSFQSLACSPGLPAADRLSYSGRPGSRQAGLGRAGDSAVLVLPPSPGPRSSRPSMDSEGGSLLLDEDSEVFKMLQENREGRAAPRQSSSFRLLQEALEAEERGGTPAFLPSSLSPQSSLPASRALATPPKLHTCEKCSTSIANQAVRIQEGRYRHPGCYTCADCGLNLKMRGHFWVGDELYCEKHARQRYSAPATLSSRA

Columns and labels:
[1] = target: UbcH5a (human recombinant E2), P51668
Sequence of UbcH5a (human recombinant E2), P51668 (P51668 whole entry): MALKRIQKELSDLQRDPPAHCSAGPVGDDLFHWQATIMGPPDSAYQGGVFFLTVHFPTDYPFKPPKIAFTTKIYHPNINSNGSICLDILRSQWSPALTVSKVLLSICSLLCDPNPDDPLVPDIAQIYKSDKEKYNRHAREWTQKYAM

[2] = target: T1, recombinant human STAT1 (Biosource), …

Row | Protein | ubiquitination of WT-Δ52-hSLIM with different human E2 enzymes (Avidin-HRP blot) [1] | ubiquitination of STAT1 (ubiquitin transfer assay, Avidin-HRP blot) [2]
1 | B1 | WT-A52-hSLIM demonstrates preferential ubiquitination in the presence of UbcH5a | WT-Δ52-hSLIM demonstrates E3 ligase activity by transferring ubiquitin to a biologically relevant downstream substrate, STAT1
2 | B2 |  | WT-SLIM mediates the ubiquitination of STAT1 and demonstrates strong E3 ligase activity towards both STAT1 and hSLIM
